Assay results as given in article PMC7863765 (Journal of Molecular Biology, 2021).

Target: the molecule itself
Assay: SEC-MALS

B1: untagged full-length human 14-3-3γ (natural protein, UniProt P61981 1-247, looked up)
chain: MVDREQLVQKARLAEQAERYDDMAAAMKNVTELNEPLSNEERNLLSVAYKNVVGARRSSWRVISSIEQKTSADGNEKKIEMVRAYREKIEKELEAVCQDVLSLLDNYLIKNCSETQYESKVFYLKMKGDYYRYLAEVATGEKRATVVESSEKAYSEAHEISKEHMQPTHPIRLGLALNYSVFYYEIQNAPEQACHLAKTAFDDAIAELDTLNEDSYKDSTLIMQLLRDNLTLWTSDQQDDDGGEGNN
notes: human 14-3-3 protein gamma, full length, untagged
  stoichiometry N: 2
